T1: EsCas13d, nuclease-dead (Eubacterium siraeum, UniProt B0MS50, R295A;H300A;R849A;H854A)
T1 sequence: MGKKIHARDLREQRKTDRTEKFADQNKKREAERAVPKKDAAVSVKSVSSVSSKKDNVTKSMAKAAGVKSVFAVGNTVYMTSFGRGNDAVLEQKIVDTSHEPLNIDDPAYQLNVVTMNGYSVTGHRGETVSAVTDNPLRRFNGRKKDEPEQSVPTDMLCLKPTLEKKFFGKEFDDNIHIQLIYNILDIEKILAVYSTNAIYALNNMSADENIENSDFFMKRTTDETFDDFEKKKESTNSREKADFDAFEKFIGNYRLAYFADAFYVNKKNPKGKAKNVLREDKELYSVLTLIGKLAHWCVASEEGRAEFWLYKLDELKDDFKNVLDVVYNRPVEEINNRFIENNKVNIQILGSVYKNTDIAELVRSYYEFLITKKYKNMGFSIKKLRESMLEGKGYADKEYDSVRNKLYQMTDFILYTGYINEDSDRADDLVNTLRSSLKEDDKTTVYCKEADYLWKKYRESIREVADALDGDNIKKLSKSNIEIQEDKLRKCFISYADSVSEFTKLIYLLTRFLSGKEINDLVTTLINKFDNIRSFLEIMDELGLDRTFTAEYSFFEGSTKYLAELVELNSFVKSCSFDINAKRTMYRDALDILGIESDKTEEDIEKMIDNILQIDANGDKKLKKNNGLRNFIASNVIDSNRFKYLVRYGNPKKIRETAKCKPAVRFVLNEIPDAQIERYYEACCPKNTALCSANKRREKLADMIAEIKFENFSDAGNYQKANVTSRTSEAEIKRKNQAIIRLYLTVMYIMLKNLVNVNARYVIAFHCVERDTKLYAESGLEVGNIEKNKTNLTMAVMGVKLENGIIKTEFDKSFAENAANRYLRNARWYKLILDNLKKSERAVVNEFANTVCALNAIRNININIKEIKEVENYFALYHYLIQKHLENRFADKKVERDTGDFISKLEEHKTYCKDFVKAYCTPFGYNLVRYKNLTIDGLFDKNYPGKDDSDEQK


Target: T1, EsCas13d, nuclease-dead
Assay: crRNA (strand 1, pre-loaded); Mg2+; 40 mM Tris-HCl pH 7.5, 150 mM NaCl, 6 mM MgCl2, 1 mM DTT, 0.1% Tween-20, 0.2 mg/ml BSA; 25 C; 10 min per concentration, then washed
Details: tags: His6-TwinStrep-SUMO cleaved; N-terminal SNAP kept (SNAP-Surface 488); label: 3' end held by stalled T7 RNA polymerase

| Binder | Kd [nM] |
| --- | --- |
| target 1 del3,del9 (mixed) RNA 1: CACCCGUGCAAAAAUGCAGGGGUCUAAAACUGAGCGGAUAACCUCUCUAUGG RNA 2: GGGAAUGGAUCCACAUCUACGAAUUCGUACCAUAGAGAGGUUUCCGCCACCGAGAUCGGAAGAGCACACGU | 40 ± 5 |
| target 1 insG 3' of 19,insG 3' of 16 (mixed) RNA 1: CACCCGUGCAAAAAUGCAGGGGUCUAAAACUGAGCGGAUAACCUCUCUAUGG RNA 2: GGGAAUGGAUCCACAUCUACGAAUUCGUACCAUGAGAGGAGGUUAUCCGCUCACCGAGAUCGGAAGAGCACACGU | 97 ± 16 |
| target 1 U3G,U11G (mixed) RNA 1: CACCCGUGCAAAAAUGCAGGGGUCUAAAACUGAGCGGAUAACCUCUCUAUGG RNA 2: GGGAAUGGAUCCACAUCUACGAAUUCGUACCAUAGAGAGGGUAUCCGCGCACCGAGAUCGGAAGAGCACACGU | 11.7 ± 0.9 |
| target 1 insC 3' of 18,insU 3' of 15 (mixed) RNA 1: CACCCGUGCAAAAAUGCAGGGGUCUAAAACUGAGCGGAUAACCUCUCUAUGG RNA 2: GGGAAUGGAUCCACAUCUACGAAUUCGUACCAUACGAGUAGGUUAUCCGCUCACCGAGAUCGGAAGAGCACACGU | 82 ± 33 |
| target 1 insU 3' of 12,insU 3' of 2 (mixed) RNA 1: CACCCGUGCAAAAAUGCAGGGGUCUAAAACUGAGCGGAUAACCUCUCUAUGG RNA 2: GGGAAUGGAUCCACAUCUACGAAUUCGUACCAUAGAGAGGUUUAUCCGCUCUACCGAGAUCGGAAGAGCACACGU | 8.3 ± 0.8 |
| target 1 U8A,A18G (mixed) RNA 1: CACCCGUGCAAAAAUGCAGGGGUCUAAAACUGAGCGGAUAACCUCUCUAUGG RNA 2: GGGAAUGGAUCCACAUCUACGAAUUCGUACCAUGGAGAGGUUAACCGCUCACCGAGAUCGGAAGAGCACACGU | 72 ± 16 |
| target 1 insA 3' of 22,insG 3' of 2 (mixed) RNA 1: CACCCGUGCAAAAAUGCAGGGGUCUAAAACUGAGCGGAUAACCUCUCUAUGG RNA 2: GGGAAUGGAUCCACAUCUACGAAUUCGUACACAUAGAGAGGUUAUCCGCUCGACCGAGAUCGGAAGAGCACACGU | 12.2 ± 0.9 |
| target 1 insU 3' of 18 (mixed) RNA 1: CACCCGUGCAAAAAUGCAGGGGUCUAAAACUGAGCGGAUAACCUCUCUAUGG RNA 2: GGGAAUGGAUCCACAUCUACGAAUUCGUACCAUAUGAGAGGUUAUCCGCUCACCGAGAUCGGAAGAGCACACGU | 31 ± 3.2 |
| target 1 insG 3' of 21,insA 3' of 21 (mixed) RNA 1: CACCCGUGCAAAAAUGCAGGGGUCUAAAACUGAGCGGAUAACCUCUCUAUGG RNA 2: GGGAAUGGAUCCACAUCUACGAAUUCGUACCGAAUAGAGAGGUUAUCCGCUCACCGAGAUCGGAAGAGCACACGU | 27.3 ± 3.5 |
| target 1 insU 3' of 20,insC 3' of 14 (mixed) RNA 1: CACCCGUGCAAAAAUGCAGGGGUCUAAAACUGAGCGGAUAACCUCUCUAUGG RNA 2: GGGAAUGGAUCCACAUCUACGAAUUCGUACCAUUAGAGACGGUUAUCCGCUCACCGAGAUCGGAAGAGCACACGU | 51 ± 16 |
| target 1 C4U,G12A (mixed) RNA 1: CACCCGUGCAAAAAUGCAGGGGUCUAAAACUGAGCGGAUAACCUCUCUAUGG RNA 2: GGGAAUGGAUCCACAUCUACGAAUUCGUACCAUAGAGAGAUUAUCCGUUCACCGAGAUCGGAAGAGCACACGU | 23.7 ± 3 |
| target 1 insA 3' of 17,insC 3' of 10 (mixed) RNA 1: CACCCGUGCAAAAAUGCAGGGGUCUAAAACUGAGCGGAUAACCUCUCUAUGG RNA 2: GGGAAUGGAUCCACAUCUACGAAUUCGUACCAUAGAAGAGGUUCAUCCGCUCACCGAGAUCGGAAGAGCACACGU | 27 ± 6 |
| target 1 insA 3' of 21,insC 3' of 10 (mixed) RNA 1: CACCCGUGCAAAAAUGCAGGGGUCUAAAACUGAGCGGAUAACCUCUCUAUGG RNA 2: GGGAAUGGAUCCACAUCUACGAAUUCGUACCAAUAGAGAGGUUCAUCCGCUCACCGAGAUCGGAAGAGCACACGU | 57 ± 8 |
| target 1 C7U,A16C (mixed) RNA 1: CACCCGUGCAAAAAUGCAGGGGUCUAAAACUGAGCGGAUAACCUCUCUAUGG RNA 2: GGGAAUGGAUCCACAUCUACGAAUUCGUACCAUAGCGAGGUUAUUCGCUCACCGAGAUCGGAAGAGCACACGU | 43 ± 4 |
| target 1 insC 3' of 5,insG 3' of 2 (mixed) RNA 1: CACCCGUGCAAAAAUGCAGGGGUCUAAAACUGAGCGGAUAACCUCUCUAUGG RNA 2: GGGAAUGGAUCCACAUCUACGAAUUCGUACCAUAGAGAGGUUAUCCGCCUCGACCGAGAUCGGAAGAGCACACGU | 10 ± 0.5 |
| target 1 insU 3' of 9 (mixed) RNA 1: CACCCGUGCAAAAAUGCAGGGGUCUAAAACUGAGCGGAUAACCUCUCUAUGG RNA 2: GGGAAUGGAUCCACAUCUACGAAUUCGUACCAUAGAGAGGUUAUUCCGCUCACCGAGAUCGGAAGAGCACACGU | 13.1 ± 0.9 |
| target 1 C6U,A9U (mixed) RNA 1: CACCCGUGCAAAAAUGCAGGGGUCUAAAACUGAGCGGAUAACCUCUCUAUGG RNA 2: GGGAAUGGAUCCACAUCUACGAAUUCGUACCAUAGAGAGGUUUUCUGCUCACCGAGAUCGGAAGAGCACACGU | 8.2 ± 0.4 |
| target 1 insG 3' of 11,insU 3' of 2 (mixed) RNA 1: CACCCGUGCAAAAAUGCAGGGGUCUAAAACUGAGCGGAUAACCUCUCUAUGG RNA 2: GGGAAUGGAUCCACAUCUACGAAUUCGUACCAUAGAGAGGUGUAUCCGCUCUACCGAGAUCGGAAGAGCACACGU | 50 ± 9 |
| target 1 insU 3' of 22,insG 3' of 18 (mixed) RNA 1: CACCCGUGCAAAAAUGCAGGGGUCUAAAACUGAGCGGAUAACCUCUCUAUGG RNA 2: GGGAAUGGAUCCACAUCUACGAAUUCGUACUCAUAGGAGAGGUUAUCCGCUCACCGAGAUCGGAAGAGCACACGU | 84 ± 17 |
| target 1 U8G,A9U (mixed) RNA 1: CACCCGUGCAAAAAUGCAGGGGUCUAAAACUGAGCGGAUAACCUCUCUAUGG RNA 2: GGGAAUGGAUCCACAUCUACGAAUUCGUACCAUAGAGAGGUUUGCCGCUCACCGAGAUCGGAAGAGCACACGU | 11.4 ± 0.4 |
| target 1 insC 3' of 22,insU 3' of 18 (mixed) RNA 1: CACCCGUGCAAAAAUGCAGGGGUCUAAAACUGAGCGGAUAACCUCUCUAUGG RNA 2: GGGAAUGGAUCCACAUCUACGAAUUCGUACCCAUAUGAGAGGUUAUCCGCUCACCGAGAUCGGAAGAGCACACGU | 38 ± 9 |
| target 1 G5U,A9C (mixed) RNA 1: CACCCGUGCAAAAAUGCAGGGGUCUAAAACUGAGCGGAUAACCUCUCUAUGG RNA 2: GGGAAUGGAUCCACAUCUACGAAUUCGUACCAUAGAGAGGUUCUCCUCUCACCGAGAUCGGAAGAGCACACGU | 60 ± 6 |
| target 1 insU 3' of 9,insG 3' of 3 (mixed) RNA 1: CACCCGUGCAAAAAUGCAGGGGUCUAAAACUGAGCGGAUAACCUCUCUAUGG RNA 2: GGGAAUGGAUCCACAUCUACGAAUUCGUACCAUAGAGAGGUUAUUCCGCUGCACCGAGAUCGGAAGAGCACACGU | 12.7 ± 0.6 |
| target 1 insA 3' of 17,insA 3' of 10 (mixed) RNA 1: CACCCGUGCAAAAAUGCAGGGGUCUAAAACUGAGCGGAUAACCUCUCUAUGG RNA 2: GGGAAUGGAUCCACAUCUACGAAUUCGUACCAUAGAAGAGGUUAAUCCGCUCACCGAGAUCGGAAGAGCACACGU | 19.2 ± 1.7 |
| target 1 C2G,C4G (mixed) RNA 1: CACCCGUGCAAAAAUGCAGGGGUCUAAAACUGAGCGGAUAACCUCUCUAUGG RNA 2: GGGAAUGGAUCCACAUCUACGAAUUCGUACCAUAGAGAGGUUAUCCGGUGACCGAGAUCGGAAGAGCACACGU | 7 ± 0.4 |
| target 1 insA 3' of 21,insC 3' of 15 (mixed) RNA 1: CACCCGUGCAAAAAUGCAGGGGUCUAAAACUGAGCGGAUAACCUCUCUAUGG RNA 2: GGGAAUGGAUCCACAUCUACGAAUUCGUACCAAUAGAGCAGGUUAUCCGCUCACCGAGAUCGGAAGAGCACACGU | 55 ± 11 |
| target 1 insA 3' of 7,insU 3' of 2 (mixed) RNA 1: CACCCGUGCAAAAAUGCAGGGGUCUAAAACUGAGCGGAUAACCUCUCUAUGG RNA 2: GGGAAUGGAUCCACAUCUACGAAUUCGUACCAUAGAGAGGUUAUCACGCUCUACCGAGAUCGGAAGAGCACACGU | 7.5 ± 0.6 |
| target 1 U8G,U10A (mixed) RNA 1: CACCCGUGCAAAAAUGCAGGGGUCUAAAACUGAGCGGAUAACCUCUCUAUGG RNA 2: GGGAAUGGAUCCACAUCUACGAAUUCGUACCAUAGAGAGGUAAGCCGCUCACCGAGAUCGGAAGAGCACACGU | 19.7 ± 1.2 |
